Values belong to the binder of their own block, whether it stands above or below them.
How the values were obtained:
[1] = target: T1, human VEGF-A165 (human, UniProt P15692 207-395); assay: SPR, Biacore T100, kinetic analysis, 1:1 model
T1 construct: also called VEGF165; human recombinant VEGF165

[2] = target: T2, mouse VEGF-A (mouse, UniProt Q00731-2 27-190, limits assumed); assay: ELISA and SPR
T2 sequence (looked up): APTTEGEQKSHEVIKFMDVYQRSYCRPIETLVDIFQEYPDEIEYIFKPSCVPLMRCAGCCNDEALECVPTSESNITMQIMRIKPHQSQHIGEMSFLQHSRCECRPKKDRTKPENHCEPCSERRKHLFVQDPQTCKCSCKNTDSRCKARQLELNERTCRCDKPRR

[3] = target: T1, human VEGF-A165; assay: cell-based or functional assay
[4] = target: T3, human VEGF-B186 (human, UniProt P49765 22-207); assay: SPR, Biacore T100, antibody (6.30-0.18 uM) injected over immobilized VEGF-B186 (4000 RU), 1:1 model
T3 construct: also called Vascular endothelial growth factor antigen B
T3 sequence: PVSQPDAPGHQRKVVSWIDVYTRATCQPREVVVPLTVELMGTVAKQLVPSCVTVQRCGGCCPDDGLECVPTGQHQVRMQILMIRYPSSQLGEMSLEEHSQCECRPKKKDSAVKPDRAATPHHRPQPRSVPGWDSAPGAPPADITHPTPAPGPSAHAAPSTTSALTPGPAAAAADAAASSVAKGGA
Description: KA and KD respectively, were determined by kinetic analysis fitting a 1:1 interaction model using biacore T100 Evaluation software.

[5] = target: T1, human VEGF-A165; assay: SPR, BIAcore T100, kinetic analysis, 1:1 model
Description: Affinity and Dissociation Constants, KA and KD, respectively, were determined by kinetic analysis fitting a 1:1 interaction model using the BIAcore T100 evaluation software.

Kd [1]: 0.0053 nM
koff [1]: 9.9e-05 s⁻¹
kon [1]: 1.87e+07 M⁻¹ s⁻¹
binding result [2]: no binding
IC50, HUVEC proliferation assay [3]: ~0.011 µg/mL
IC50 in the HUVEC proliferation assay against that of bevacizumab [3]: 5 fold lower
koff [4]: 0.00571 s⁻¹
kon [4]: 32800 M⁻¹ s⁻¹
B1: mMcA-AB1-anti-VEGF-A (mouse monoclonal antibody A-AB1-anti-VEGF-A) (antibody, V domains shown)
VH: QVKLLESGPELKKPGETVKISCKASGYTFTNFGMNWVKQAPGKGLKWMGWINTNTGEPTYVDDFKGRFAFSLETSASSAYLQISNLNNEDTATYFCARYYGSTSVWYFDVWGAGTTVTVSS
VL: ELVMTQTPSSLSASLGDRVTITCRASQDIFNYLNWYQQKPDGPIKLLIYYSSRLHSGVPSRFSGSGSGTDYSLTISNLDREDIATYFCQQGFTLPWTFGGGTKLEIKR
notes: also called mMc-AB1-anti-VEGF-A; mouse AB1 antibody

Ka [5]: 9.24e+09 M⁻¹
Kd [5]: 0.109 nM
koff [5]: 0.000421 s⁻¹
kon [5]: 3.83e+06 M⁻¹ s⁻¹
binding result [2]: no binding
IC50, HUVEC proliferation assay [3]: ~0.019 µg/mL
IC50 in the HUVEC proliferation assay against that of bevacizumab [3]: 3 fold lower
B2: hMcA-AB1-anti-VEGF-A (humanized monoclonal antibody A-AB1-anti-VEGF-A) (antibody, human IgG1, V domains shown)
VH: QVQLVQSGSELKKPGASVKVSCKASGYTFTNFGMNWVRQAPGQGLEWMGWINTNTGEPTYVDDFKGRFVFSLDTSVSTAYLQISSLKAEDTAVYYCARYYGSTSVWYFDVWGRGTLVTVSS
VL: DIQMTQSPSSLSASVGDRVTITCRASQDIFNYLNWYQQKPGKAPKLLIYYSSRLHSGVPSRFSGSGSGTDFTFTISSLQPEDIATYYCQQGFTLPWTFGQGTKVEIKR
notes: The constant regions come from the vectors pFUSE-CHIg-hG1 (human IgG1 heavy) and pFUSE2-CLIg-hk (human kappa light); also called hMcA-AB1-VEGF-A; humanized mMc-AB1-anti-VEGF-A
